# Experimental data taken from PMC2386976.
# Test system: EIAV Rev (ERev), MBP-ERev fusion (Equine infectious anemia virus (EIAV))
# Test: filter binding
# Details: Footprinting: 10 mM HEPES-KOH pH 7.5, 100 mM KCl, 1 mM MgCl2, 0.5 mM EDTA, complex formed 20 min on ice, probed 10 min at room temperature
substance,measurement,value
"ERRE_RBR12 (ERRE, EIAV RRE-1, contains RBR-1 and RBR-2)",Kd,19 nM
